Consider 1 molecule from paper PMC8888459, “During FeS cluster biogenesis, ferredoxin and frataxin use overlapping binding sites on yeast cysteine desulfurase Nfs1” (The Journal of Biological Chemistry, 2022).

For this experiment, the target named is T1, NIA–Isu1 complex with S. cerevisiae Isu1 (S. cerevisiae | E. coli (endogenous in …, UniProt P25374 37-497; Q6Q560 1-94; P0A6A8 1-78; Q03020 28-165).
T1 construct: Nfs1, mitochondrial cysteine desulfurase of S. cerevisiae; Isd11 of S. cerevisiae; acyl carrier protein of E. coli (ACPEc), endogenous in the expression host, 8.6 kD; Isu1, FeS cluster scaffold protein of S. cerevisiae (Isu1Sc); Formed in the reaction mixture from NIA and Isu1Sc; the number of Isu1 chains in the complex was not measured here; also called NIA–Isu1Sc; NIA and Isu1Sc mixture; …
As to the kind of experiment: pull-down; competition: Yah1^GST (2.5 μM) with NIA (5 μM), with or without Isu1Sc or Isu1Ct (7.5 μM), then Yfh1 WT or DE/KK added (12.5 μM or increasing concentrations); glutathione resin; densitometry, amount without Yfh1 set as 100%; buffer PD. The note with it: both partners purified.

T1 sequence (P25374 37-497, chain 1 of 4): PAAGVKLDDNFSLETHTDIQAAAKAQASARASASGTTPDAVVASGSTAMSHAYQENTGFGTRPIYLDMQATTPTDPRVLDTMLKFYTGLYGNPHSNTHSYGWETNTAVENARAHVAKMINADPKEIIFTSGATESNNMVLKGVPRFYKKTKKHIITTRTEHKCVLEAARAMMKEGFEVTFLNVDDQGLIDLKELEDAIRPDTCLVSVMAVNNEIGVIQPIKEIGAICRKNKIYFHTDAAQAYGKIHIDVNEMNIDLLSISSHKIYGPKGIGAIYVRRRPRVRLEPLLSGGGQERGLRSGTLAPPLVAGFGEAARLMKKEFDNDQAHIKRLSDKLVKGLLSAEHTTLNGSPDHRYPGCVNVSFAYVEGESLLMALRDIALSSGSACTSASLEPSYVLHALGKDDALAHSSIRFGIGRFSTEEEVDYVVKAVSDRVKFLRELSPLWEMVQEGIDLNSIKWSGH
T1 sequence (Q6Q560 whole entry, chain 2 of 4): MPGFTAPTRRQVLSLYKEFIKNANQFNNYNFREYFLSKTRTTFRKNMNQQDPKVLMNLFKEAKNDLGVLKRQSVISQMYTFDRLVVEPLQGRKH
T1 sequence (P0A6A8 whole entry, chain 3 of 4): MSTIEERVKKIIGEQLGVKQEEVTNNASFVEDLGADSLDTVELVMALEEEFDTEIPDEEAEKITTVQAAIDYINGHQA
T1 sequence (Q03020 28-165, chain 4 of 4): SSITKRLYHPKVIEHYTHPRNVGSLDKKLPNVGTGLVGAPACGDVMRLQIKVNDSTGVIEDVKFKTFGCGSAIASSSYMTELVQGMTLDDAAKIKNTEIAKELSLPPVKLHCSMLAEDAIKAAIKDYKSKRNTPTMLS

B1: Yfh1 (frataxin) with a C-terminal polyhistidine tag (natural protein, S. cerevisiae, UniProt Q07540 52-174, looked up)
chain: VESSTDGQVVPQEVLNLPLEKYHEEADDYLDHLLDSLEELSEAHPDCIPDVELSHGVMTLEIPAFGTYVINKQPPNKQIWLASPLSGPNRFDLLNGEWVSLRNGTKLTDILTEEVEKAISKSQ
notes: Yfh1, mitochondrial frataxin of S. cerevisiae; also called Yfh1 (WT); source: E. coli expression systems
Consider B1, for which the “percent reduction of Nfs1, Isd11 and Isu1 pulled down with Yah1^GST at a fivefold excess of Yfh1 (12.5 μM)” value amounted to 85%.
